Laboratory results reported in US20150322160A1 (Bayer, published 2015).
Substitutions are numbered along the chain they refer to.

B1: MF-226 Fab (Fab, V domains shown)
VH: QVELVQSGAEVKKPGASVKVSCKASGYTFTGNYINWVRQAPGQGLEWMGIINPHGGDTKYAQKFQGRVTMTRDTSISTAYMELSSLRSEDTAVYYCARWHHGTWIFDYWGQGTLVTVSS
VL: DIVLTQPPSVSGAPGQRVTISCSGSSSNIGSNYVSWYQQLPGTAPKLLIYNDNQRPSGVPDRFSGSKSGTSASLAITGLQSEDEADYYCSTYDRRTFSVFGGGTKLTVLG
notes: Tested as Fab ('KD of Fab'); the Fab constant domains are not
B2: MF-T Fab (Fab, V domains shown)
VH: QVELVQSGAEVKKPGESLKISCKGSGYSFTSYWIGWVRQAPGKGLEWMGIIDPGDSRTRYSPSFQGQVTISADKSISTAYLQWSSLKASDTAMYYCARGQLYGGTYMDGWGQGTLVTVSS
VL: DIALTQPASVSGSPGQSITISCTGTSSDIGGYNSVSWYQQHPGKAPKLMIYGVNNRPSGVSNRFSGSKSGNTASLTISGLQAEDEADYYCSSYDIESATPVFGGGTKLTVLG
notes: as for B1
B3: MF-J Fab (Fab, V domains shown)
VH: QVELVQSGAEVKKPGESLKISCKGSGYSFTNYWIGWVRQMPGKGLEWMGVIMPSDSYTRYSPSFQGQVTISADKSISTAYLQWSSLKASDTAMYYCARYGHGMYGGALDVWGQGTLVTVSS
VL: DIVLTQSPATLSLSPGERATLSCRASQSVRSSRLAWYQQKPGQAPRLLIYGASKRATGVPARFSGSGSGTDFTLTISSLEPEDFATYYCQQYYDFPPTFGQGTKVEIKR
notes: as for B1
B4: MOR 06640 Fab (Fab, V domains shown)
VH: B3 VH with E3Q
VL: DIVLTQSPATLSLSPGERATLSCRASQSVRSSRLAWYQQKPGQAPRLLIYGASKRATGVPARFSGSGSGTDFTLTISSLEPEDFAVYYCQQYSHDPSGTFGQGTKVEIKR
notes: Tested as Fab ('KD of Fab'); the Fab constant domains are not; also called MOR6640
B5: MF-226-SPDP-DM4 (antibody, V domains shown)
VH: B1 VH
VL: B1 VL
modifications: DM4 maytansinoid conjugated via SPDB (printed SPDP in Table 2) linker; DM4/Ab 3.3; attachment residues not stated
B6: MF-T-SPDP-DM4 (antibody)
VH: B2 VH
VL: DIALTQPASVSGSPGQSITISCTGTSSDIGGYNSVSWYQQHPGKAPKLMIYGVNNRPSGVSNRFSGSKSGNTASLTISGLQAEDEADYYCSSYDIESATPVFGGGTKLTVLGQDIVLTQPPSVSGAPGQRVTISCSGSSSNIGSNYVSWYQQLPGTAPKLLIYNDNQRPSGVPDRFSGSKSGTSASLAITGLQSEDEADYYCSTYDRRTFSVFGGGTKLTVLGQ
modifications: DM4 maytansinoid conjugated via SPDB (printed SPDP in Table 2) linker; DM4/Ab 3.6; attachment residues not stated
B7: MF-J-SPDP-DM4 (antibody, V domains shown)
VH: B3 VH
VL: B3 VL
modifications: DM4 maytansinoid conjugated via SPDB (printed SPDP in Table 2) linker; DM4/Ab 2.8; attachment residues not stated
B8: MOR06640-SPDP-DM4 (antibody, V domains shown)
VH: B3 VH with E3Q
VL: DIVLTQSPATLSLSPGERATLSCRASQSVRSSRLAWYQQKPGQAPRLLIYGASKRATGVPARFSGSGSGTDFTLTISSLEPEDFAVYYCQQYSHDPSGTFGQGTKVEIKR
modifications: DM4 maytansinoid conjugated via SPDB (printed SPDP in Table 2) linker; DM4/Ab 3.6; attachment residues not stated

Molecular target: T1, mesothelin (40 kDa, C-terminal domain of the mesothelin precursor polypeptide) (Homo sapiens (Human), UniProt Q13421 296-598)
T1 construct: Antigen of the Fab KD values
Assay: KD of Fab; method not stated

T1 sequence (Q13421 other isoform, or with tags, fused parts or gaps limits assumed): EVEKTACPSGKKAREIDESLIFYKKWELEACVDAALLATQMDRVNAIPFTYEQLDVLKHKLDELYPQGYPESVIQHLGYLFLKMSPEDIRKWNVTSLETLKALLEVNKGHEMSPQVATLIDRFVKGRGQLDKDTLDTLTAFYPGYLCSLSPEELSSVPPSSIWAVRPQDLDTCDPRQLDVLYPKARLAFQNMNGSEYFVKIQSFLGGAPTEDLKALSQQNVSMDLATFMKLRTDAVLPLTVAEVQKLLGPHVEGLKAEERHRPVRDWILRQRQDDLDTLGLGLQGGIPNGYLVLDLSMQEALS

Binder | Kd [nM]
B1 | 58.3
B2 | 16.3
B3 | 9.2
B4 | 0.19

Molecular target: mesothelin expressed on cells (transfected MiaPaCa-2, HT29 C2, CHO A9; endogenous HelaMatu, OVCAR-3) (Homo sapiens (Human), UniProt Q13421 296-598)
Assay: cell-based or functional assay

mesothelin expressed on cells (transfected MiaPaCa-2, HT29 C2, CHO A9; endogenous HelaMatu, OVCAR-3), sequence (Q13421 other isoform, or with tags, fused parts or gaps limits assumed): as above

Binder | IC50 (nM), cell viability (WST-1), CHO A9* (Mesothelin+) [nM] | IC50 (nM), cell viability (WST-1), HT29 C2 (Mesothelin+) [nM] | IC50 (nM), cell viability (WST-1), HelaMatu [nM] | IC50 (nM), cell viability (WST-1), MiaPaCa-2 (Mesothelin+) [nM] | IC50 (nM), cell viability (WST-1), OVCAR-3 [nM]
B5 | 1.3 | 8 | 0.9 | 21 | 14.8
B6 | 1 | 1.5 | 0.45 | 1.3 | 2.8
B7 | 0.35 | 0.3 | 0.2 | 1.4 | 0.9
B8 | 1.2 | 0.21 | 0.6 | 0.36 | 1.07
